From patent US5622828, “High-affinity oligonucleotide ligands to secretory phospholipase A2 (sPLA2)” (Nexstar Pharmaceuticals, Inc.)

Experiments:
[1] = molecular target: T1, secretory phospholipase A2 (sPLA2) (Homo sapiens, UniProt P14555 P14555:21-144); test: filter; biphasic, Kd2 180 nM, mole fraction 0.45; TBSC, 37 C; conditions: tags: supplied by Eli Lilly
T1 sequence: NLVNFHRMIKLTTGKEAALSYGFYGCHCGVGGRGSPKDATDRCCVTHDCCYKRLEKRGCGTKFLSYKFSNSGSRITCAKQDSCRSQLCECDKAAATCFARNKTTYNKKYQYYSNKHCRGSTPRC
Method: (§1) The nitrocellulose filter partitioning method was used as described in SELEX Patent Applications to determine the affinity of RNA ligands for sPLA_2 and for other promins. Filter discs (nitrocellulose/cellulose acetate mixed matrix, 0.45 µm pore size, Millipore) were placed on a vacuum manifold and washed with 5 ml of TBSC buffer under vacuum. Reaction mixtures, containing ^32P labeled RNA pools and sPLA_2, were incubated in TBSC for 5 minutes at 37° C., filtered, and then immediately washed with 5 ml TBSC. The filters were air-dried and counted in a Beckman liquid scintillation counter without fluor.
(§2) The dissociation constants for representative members of families I–VI, orphan and other ligands were determined by nitrocellulose filter binding experiments and are listed in Table III. Unlike random RNA, all tested ligands from the 2'OH SELEXes bound biphasically.

lysozyme (egg white) = lysozyme (egg white) (Gallus gallus, UniProt P00698 P00698:19-147); test: filter; specificity control, like random RNA; TBSC; conditions: tags: 6x crystallized
Method: (§3) The affinity of sPLA_2 ligands 2, 72, 80, 87, NN19 and NN19.15 (SEQ ID NOs.:11, 20, 53, 54, 64, and 117, respectively) for proteins other than sPLA_2 was determined by nitrocellulose partitioning (Tables IV and V). Like sPLA_2, hen egg white lysozyme, bFGF and elastase are small, highly cationic proteins. Bovine pancreatic PLA_2 is an evolutionarily and structurally related enzyme. […] Specificity is particularly well illustrated by the affinities for bovine pancreatic PLA_2 which is 10^4-fold less than that for human sPLA_2.
(§4) *Standard binding experiments were performed to the specified target protein in TBSC and K_d's is calculated by curve fitting. The ligands bind no better than randomized RNA (30N1) to lysozyme (hen egg-white), human basic fibroblast growth factor basic (bFGF) and bovine pancreatic PLA₂. The sPLA₂ K_d that of the high affinity species.

[2] = molecular target: pancreatic phospholipase A2 (bpPLA2) (Bos taurus, UniProt P00593 P00593:23-145); test: filter; specificity control, like random RNA; TBSC
Method: as §3, §4

[3] = molecular target: basic fibroblast growth factor (bFGF) (Homo sapiens, UniProt P09038 P09038:143-288); test: filter; specificity control, like random RNA; TBSC
Method: as §3, §4

[4] = molecular target: T1, secretory phospholipase A2 (sPLA2); test: filter; biphasic, Kd2 170 nM, mole fraction 0.15; Table III prints SEQ 104, name matches SEQ 105; TBSC, 37 C; conditions: tags: supplied by Eli Lilly
Method: as §1, §2

[5] = molecular target: T1, secretory phospholipase A2 (sPLA2); test: filter; biphasic, Kd2 130 nM, mole fraction 0.40; TBSC, 37 C; conditions: tags: supplied by Eli Lilly
Method: as §1, §2

[6] = molecular target: T1, secretory phospholipase A2 (sPLA2); test: filter; biphasic, Kd2 52 nM, mole fraction 0.35; TBSC, 37 C; conditions: tags: supplied by Eli Lilly
Method: as §1, §2

[7] = molecular target: T1, secretory phospholipase A2 (sPLA2); test: filter; biphasic, Kd2 530 nM, mole fraction 0.40; TBSC, 37 C; conditions: tags: supplied by Eli Lilly
Method: as §1, §2

[8] = molecular target: T1, secretory phospholipase A2 (sPLA2); test: filter; biphasic, Kd2 360 nM, mole fraction 0.40; TBSC, 37 C; conditions: tags: supplied by Eli Lilly
Method: as §1, §2

[9] = molecular target: T1, secretory phospholipase A2 (sPLA2); test: filter; biphasic, Kd2 110 nM, mole fraction 0.40; TBSC, 37 C; conditions: tags: supplied by Eli Lilly
Method: as §1, §2

[10] = molecular target: T1, secretory phospholipase A2 (sPLA2); test: filter; biphasic, Kd2 740 nM, mole fraction 0.55; TBSC, 37 C; conditions: tags: supplied by Eli Lilly
Method: as §1, §2

[11] = molecular target: T1, secretory phospholipase A2 (sPLA2); test: filter; biphasic, Kd2 300 nM, mole fraction 0.55; TBSC, 37 C; conditions: tags: supplied by Eli Lilly
Method: as §1, §2

[12] = molecular target: T1, secretory phospholipase A2 (sPLA2); test: filter; biphasic, Kd2 62 nM, mole fraction 0.50; TBSC, 37 C; conditions: tags: supplied by Eli Lilly
Method: as §1, §2

[13] = molecular target: T1, secretory phospholipase A2 (sPLA2); test: filter; biphasic, Kd2 170 nM, mole fraction 0.65; TBSC, 37 C; conditions: tags: supplied by Eli Lilly
Method: as §1, §2

[14] = molecular target: T1, secretory phospholipase A2 (sPLA2); test: filter; biphasic, Kd2 310 nM, mole fraction 0.25; TBSC, 37 C; conditions: tags: supplied by Eli Lilly
Method: as §1, §2

[15] = molecular target: T1, secretory phospholipase A2 (sPLA2); test: filter; biphasic, Kd2 1830 nM, mole fraction 0.50; TBSC, 37 C; conditions: tags: supplied by Eli Lilly
Method: as §1, §2

[16] = molecular target: T1, secretory phospholipase A2 (sPLA2); test: filter; biphasic, Kd2 170 nM, mole fraction 0.30; TBSC, 37 C; conditions: tags: supplied by Eli Lilly
Method: as §1, §2

[17] = molecular target: T1, secretory phospholipase A2 (sPLA2); test: filter; biphasic, Kd2 450 nM, mole fraction 0.35; TBSC, 37 C; conditions: tags: supplied by Eli Lilly
Method: as §1, §2

[18] = molecular target: T1, secretory phospholipase A2 (sPLA2); test: filter; biphasic, Kd2 300 nM, mole fraction 0.40; TBSC, 37 C; conditions: tags: supplied by Eli Lilly
Method: as §1, §2

[19] = molecular target: T1, secretory phospholipase A2 (sPLA2); test: filter; biphasic, Kd2 450 nM, mole fraction 0.50; TBSC, 37 C; conditions: tags: supplied by Eli Lilly
Method: as §1, §2

[20] = molecular target: T1, secretory phospholipase A2 (sPLA2); test: filter; biphasic, Kd2 33 nM, mole fraction 0.55; TBSC, 37 C; conditions: tags: supplied by Eli Lilly
Method: as §1, §2

[21] = molecular target: T1, secretory phospholipase A2 (sPLA2); test: filter; biphasic, Kd2 840 nM, mole fraction 0.50; TBSC, 37 C; conditions: tags: supplied by Eli Lilly
Method: as §1, §2

[22] = molecular target: T1, secretory phospholipase A2 (sPLA2); test: filter; biphasic, Kd2 720 nM, mole fraction 0.40; TBSC, 37 C; conditions: tags: supplied by Eli Lilly
Method: as §1, §2

[23] = molecular target: T1, secretory phospholipase A2 (sPLA2); test: filter; only low-affinity Kd2 listed; 5' G removed; TBSC, 37 C; conditions: tags: supplied by Eli Lilly
[24] = molecular target: T1, secretory phospholipase A2 (sPLA2); test: filter; biphasic, Kd2 1320 nM, mole fraction 0.50; TBSC, 37 C; conditions: tags: supplied by Eli Lilly
Method: as §1, §2

[25] = molecular target: T1, secretory phospholipase A2 (sPLA2); test: filter; biphasic, Kd2 250 nM, mole fraction 0.30; TBSC, 37 C; conditions: tags: supplied by Eli Lilly
Method: as §1, §2

Sequence of basic fibroblast growth factor (bFGF) (P09038 143-288, one chain of several): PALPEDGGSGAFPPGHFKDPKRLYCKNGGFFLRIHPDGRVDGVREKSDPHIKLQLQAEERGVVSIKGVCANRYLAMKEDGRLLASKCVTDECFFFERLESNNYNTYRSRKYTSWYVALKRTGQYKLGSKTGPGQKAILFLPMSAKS
Sequence of lysozyme (egg white) (P00698 19-147, one chain of several): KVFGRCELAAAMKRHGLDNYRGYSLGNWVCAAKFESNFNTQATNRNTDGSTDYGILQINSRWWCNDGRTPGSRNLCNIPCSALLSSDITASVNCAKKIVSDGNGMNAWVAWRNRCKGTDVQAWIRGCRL
Sequence of pancreatic phospholipase A2 (bpPLA2) (P00593 23-145, one chain of several): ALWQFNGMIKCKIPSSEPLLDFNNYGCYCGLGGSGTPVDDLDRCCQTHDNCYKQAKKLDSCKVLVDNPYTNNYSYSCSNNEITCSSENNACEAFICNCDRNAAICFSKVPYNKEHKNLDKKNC

B1: 2 (ssRNA)
RNA: GGGAGCUCAGAAUAAACGCUCAAUCUCAUUGCUCGUCGCACGGCGUAACCUAUUUCGACAUGAGGCCCGGAUCCGGC
Question: Which Kd [1] does the source give for B1 here?
Answer: 1.7 nM

Question: What about the Kd (lysozyme (egg white)) of the same binder?
Answer: 1700 nM

Question: What about the Kd [2] of the same binder?
Answer: 20 µM

Question: What about the Kd [3] of the same binder?
Answer: 230 nM

B2: 72.c (ssRNA)
RNA: GGGAAGACCUCUGCUUACAGCCCGGCUGAGACACUUCGACAUGAGGCC
Question: B2 was tested. Which Kd [4] did it give?
Answer: 4.6 nM

B3: 96 (ssRNA)
RNA: GGGAGCUCAGAAUAAACGCUCAAGACCUCUGCUUACAGUUCGGCUGAGACACUUCGACAUGAGGCCCGGAUCCGGC
Question: With B3 as the binder, how does the Kd [5] read?
Answer: 0.9 nM

B4: 79 (ssRNA)
RNA: GGGAGCUCAGAAUAAACGCUCAAGACCUCUGCUUACAGCUCGGCUGAGACACUUCGACAUGAGGCCCGGAUCCGGC
Question: How did the Kd [6] turn out when B4 was run?
Answer: 1.7 nM

B5: 73t (ssRNA)
RNA: GGGAGCUCAGAAUAAACGCUCAACUUACAGUUCGGCUGAGAGAAGACGCAUACUUCGACAUGAGGCCCGGAUCCGGC
Question: B5 was tested. Which Kd [7] did it give?
Answer: 2.4 nM

B6: 72t.2c (ssRNA)
RNA: GGGAUAAACGCUCAACUUACAGUUCGGCUGAGACGAAGAUCGACCUUCGACAU
Question: Which Kd [8] does the source give for B6 here?
Answer: 5 nM

B7: 11t (ssRNA)
RNA: GGGAGCUCAGAAUAAACGCUCAACUUACGGGUAAAGCCGAGAAAAUGUAUUGCUUCGACAUGAGGCCCGGAUCCGGC
Question: With B7 as the binder, how does the Kd [9] read?
Answer: 0.6 nM

B8: 2.3 (ssRNA)
RNA: GGUCUCAUUGCUCGUCGCACGGCGUAACCUAUUUCGACAUGAG
Question: With B8 as the binder, how does the Kd [10] read?
Answer: 2.6 nM

B9: 4 (ssRNA)
RNA: GGGAGCUCAGAAUAAACGCUCAAUGUCUUACGGGUAAAGCCGAGAAAGUUUCCUUCGACAUGAGGCCCGGAUCCGGC
Question: For B9, which Kd [11] is on record?
Answer: 0.7 nM

B10: 89 (ssRNA)
RNA: GGGAGCUCAGAAUAAACGCUCAAAGUCUUACGGGUAAAGCCGAGAAAGUUUCCUUCGACAUGAGGCCCGGAUCCGGC
Question: Which Kd [12] does the source give for B10 here?
Answer: 2.5 nM

B11: 35t (ssRNA)
RNA: GGGAGCUCAGAAUAAACGCUCAAGGCUGGGUCUUUUACAGGUAAAGCUGAGAAUUCGACAUGAGGCCCGGAUCCGGC
Question: With B11 as the binder, how does the Kd [13] read?
Answer: 2.4 nM

B12: 9t (ssRNA)
RNA: GGGAGCUCAGAAUAAACGCUCAACACGGGGGUGGGUGGGUGGCCGAGCGCUUGUUCGACAUGAGGCCCGGAUCCGGC
Question: With B12 as the binder, how does the Kd [14] read?
Answer: 39.4 nM

B13: 6t (ssRNA)
RNA: GGGAGCUCAGAAUAAACGCUCAAUGCCUCAUGCCAAUGUGGGAGGGUGGGUGGUUCGACAUGAGGCCCGGAUCCGGC
Question: Which Kd [15] does the source give for B13 here?
Answer: 28 nM

B14: 83t (ssRNA)
RNA: GGGAGCUCAGAAUAAACGCUCAACGCCUCAUGCCAACGUGGGAGCGUGGGUGGUUCGACAUGAGGCCCGGAUCCGGC
Question: Which Kd [16] does the source give for B14 here?
Answer: 10.5 nM

B15: 86t (ssRNA)
RNA: GGGAGCUCAGAAUAAACGCUCAACGCCUCAUGCCAAUGCGGGAGGGUGGGUGGUUCGACAUGAGGCCCGGAUCCGGC
Question: How did the Kd [17] turn out when B15 was run?
Answer: 2.8 nM

B16: 80 (ssRNA)
RNA: GGGAGCUCAGAAUAAACGCUCAAGCUCUGGGAUGAUGCCCAGUGUCCAGCAUCUUCGACAUGAGGCCCGGAUCCGGC
Question: B16 was tested. Which Kd (lysozyme (egg white)) did it give?
Answer: 2700 nM

Question: And the Kd [2]?
Answer: 29 µM

Question: What about the Kd [3] of the same binder?
Answer: 240 nM

Question: What about the Kd [18] of the same binder?
Answer: 1.6 nM

B17: 87 (ssRNA)
RNA: GGGAGCUCAGAAUAAACGCUCAAGCUCUGGGAUGAUGCCCACUGUCCAGCAUCUUCGACAUGAGGCCCGGAUCCGGC
Question: Which Kd [19] does the source give for B17 here?
Answer: 0.8 nM

Question: What about the Kd (lysozyme (egg white)) of the same binder?
Answer: 2300 nM

Question: What about the Kd [2] of the same binder?
Answer: 20 µM

Question: And the Kd [3]?
Answer: 220 nM

B18: 3 (ssRNA)
RNA: GGGAGCUCAGAAUAAACGCUCAAAGCUCAUCGUCUCGCAAGGCGUAUCCUAUUUCGACAUGAGGCCCGGAUCCGGC
Question: How did the Kd [20] turn out when B18 was run?
Answer: 1.9 nM

B19: 87F (ssRNA)
RNA: GGGAGCUCAGAAUAAACGCUCAAGCUCUGGGAUGAUGCCCACUGUCCAGCAUCUUCGACAUGAGGCCCGGAUCCGGC
modifications: 2'-F all C and U
Question: Which Kd [21] does the source give for B19 here?
Answer: 1.2 nM

B20: 87.3 (ssRNA)
RNA: GGGAGCUCAGAAUAAACGCUCAAGCUCUGGGAUGAUGCCCACUGUCCAGCAUCUUCGACAUG
Question: Which Kd [22] does the source give for B20 here?
Answer: 0.8 nM

B21: 87.4 (ssRNA)
RNA: GGAGCUCAGAAUAAACGCUCAAGCUCUGGGAUGAUGCCCACUGUCCAGCAUCUUCGACAUG
Question: With B21 as the binder, how does the Kd [23] read?
Answer: 4.35 µM

B22: 87.5 (ssRNA)
RNA: GGGAGCUAUAAACGCAGCUCUGGGAUGAUGCCCACUGUCCAGCAUCUUCGACAUG
Question: B22 was tested. Which Kd [24] did it give?
Answer: 3.1 nM

B23: 87.7 (ssRNA)
RNA: GGGAGCUCAGAAUAAACGCUCAAGCUCUGGGAUGAUGCCCACUGUCCAGCAUCUUCGACAUGUGUAGCUAAACAGCUUUAGGA
Question: Which Kd [25] does the source give for B23 here?
Answer: 0.8 nM
